US20190322724A1 (RESEARCH FOUNDATION FOR THE STATE UNIVERSITY OF NEW YORK, published 2019)

Target: T1, endogenous secreted MMP-2 in conditioned media of SYF and SYF+c-Src mouse embryonic fibroblast cells (mouse (endogenous protein of mouse …, UniProt P33434 30-662, limits assumed))
T1 construct: also called endogenous secreted MMP-2 in SYF CM
Assay: Ni-NTA pulldown from SYF CM, immunoblot
Experimental: Pulldown and co-pulldown experiments were performed from CM and immunoblots were followed. […] Data represent three independent experiments.
Equal amounts of isolated cell extract proteins were incubated with HisPur Ni-NTA Resin (ThermoScientific) for 2 hours at 4° C. Immunopellets were washed 4 times with fresh lysis buffer (20 mM HEPES pH 7.0, 100 mM NaCl, 1 mM MgCl2, 0.1% NP40, protease inhibitor cocktail (Roche) and PhosSTOP (Roche)). […] Pulldowns were also performed using conditioned media concentrated ˜10× using Amicon Ultra 10K centrifugal filters (Millipore) according to the manufacturer's protocol. HiPur Ni-NTA Resin was used to pulldown His6-tagged TIMP-2 from concentrated conditioned media. Briefly, HisPur Ni-NTA Resin was washed 3 times by vortexing resin with 0.1% NP40 lysis buffer and pipetting off supernatant. Concentrated conditioned media was combined with washed HisPur Ni-NTA Resin, and placed on rotator at 4° C. for 1 hour. Wash step was repeated 4 times with 1% NP40 buffer+150 mM NaCl to reduce non-specific binding of proteins to resin. 5× protein loading buffer was added to resin and boiled for 5 minutes.

T1 sequence (P33434 30-662 limits assumed): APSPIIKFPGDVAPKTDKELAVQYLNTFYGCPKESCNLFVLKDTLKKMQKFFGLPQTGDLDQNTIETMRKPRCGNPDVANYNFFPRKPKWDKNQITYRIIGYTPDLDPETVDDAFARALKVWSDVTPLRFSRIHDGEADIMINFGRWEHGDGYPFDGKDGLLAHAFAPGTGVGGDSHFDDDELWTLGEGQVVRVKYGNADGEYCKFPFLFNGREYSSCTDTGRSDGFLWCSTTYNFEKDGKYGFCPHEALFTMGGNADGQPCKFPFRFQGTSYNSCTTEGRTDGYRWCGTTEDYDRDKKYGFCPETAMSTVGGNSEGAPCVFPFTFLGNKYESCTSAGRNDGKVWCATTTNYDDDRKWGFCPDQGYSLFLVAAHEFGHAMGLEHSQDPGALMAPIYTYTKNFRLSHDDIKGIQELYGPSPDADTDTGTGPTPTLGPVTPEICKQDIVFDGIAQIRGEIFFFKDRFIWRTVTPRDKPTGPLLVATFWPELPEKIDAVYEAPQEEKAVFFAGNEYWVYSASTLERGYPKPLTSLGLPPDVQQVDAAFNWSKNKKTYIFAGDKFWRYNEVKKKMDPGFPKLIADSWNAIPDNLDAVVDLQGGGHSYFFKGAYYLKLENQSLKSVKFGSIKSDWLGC

binding result: no binding
B1: TIMP-2 Y62F/Y90F/Y165F-His6 (other)
chain: CSCSPVHPQQAFCNADVVIRAKAVSEKEVDSGNDIFGNPIKRIQYEIKQIKMFKGPEKDIEFIFTAPSSAVCGVSLDVGGKKEYLIAGKAEGDGKMHITLCDFIVPWDTLSTTQKKSLNHRYQMGCECKITRCPMIPCFISSPDECLWMDWVTEKNINGHQAKFFACIKRSDGSCAWYRGAAPPKQEFLDIEDPHHHHHH
notes: also called TF; triple F mutant
